According to US20060160990A1 (RIKEN, published 2006):

Legend:
[1] = target: the molecule itself; assay: self-association; pseudonative SDS/PAGE, 12.5% acrylamide, sample not boiled
Source text: Since Kaede forms a tetramer, there may be cases where its expression pattern becomes abnormal when another protein is fused with Kaede. Thus, in Kaede, threonine (T) at position 158 was substituted with arginine (R), and alanine (A) at position 160 was substituted with glutamic acid (E), so as to produce a dimeric mutant. This mutant was named as Kaede 2. The amino acid sequence and nucleotide sequence of Kaede 2 are shown in SEQ ID NOS: 7 and 8 in the sequence listing, respectively. In electrophoresis on 12.5% acrylamide gel where sample was not boiled (Pseudonative SDS/PAGE), a band of Kaede 2 was detected as a molecule with a lower molecular weight than that of Kaede (FIG. 8).

[2] = target: the molecule itself; assay: self-association; pseudonative SDS/PAGE, 12.5% acrylamide, not boiled
Source text: (§1) In Momiji, asparagine (N) at position 11 was substituted with arginine (R), leucine (L) at position 29 was substituted with threonine (T), tyrosine (Y) at position 122 was substituted with glutamic acid (E), lysine (K) at position 136 was substituted with asparagine (N), glutamine (Q) at position 138 was substituted with leucine (L), glutamine (Q) at position 142 was substituted with proline (P), asparagine (N) at position 159 was substituted with aspartic acid (D), alanine (A) at position 161 was substituted with serine (S), tyrosine (Y) at position 190 was substituted with threonine (T), phenylalanine (F) at position 192 was substituted with tyrosine (Y), cysteine (C) at position 196 was substituted with serine (S), and 6 amino acids from position 224 to position 229 were deleted. By such operations, the above Momiji became a dimer (FIG. 24). This dimer had fluorescence properties that ultraviolet ray-irradiation-dependently change from green to red, which were equivalent to those of Momiji (FIG. 25). This mutant was named as d16. The amino acid sequence and nucleotide sequence of d16 are shown in SEQ ID NOS: 15 and 16, respectively.

[3] = target: the molecule itself; assay: self-association; pseudonative SDS/PAGE, 12.5% acrylamide
Source text: as §1

[4] = target: the molecule itself; assay: pseudonative SDS/PAGE, 12.5% acrylamide gel (self-association)

B1: Kaede (fluorescent protein derived from Trachyphyllia geoffroyi) (other)
chain: MSLIKPEMKIKLLMEGNVNGHQFVIEGDGKGHPFEGKQSMDLVVKEGAPLPFAYDILTTAFHYGNRVFAKYPDHIPDYFKQSFPKGFSWERSLMFEDGGVCIATNDITLKGDTFFNKVRFDGVNFPPNGPVMQKKTLKWEASTEKMYLRDGVLTGDITMALLLKGDVHYRCDFRTTYKSRQEGVKLPGYHFVDHCISILRHDKDYNEVKLYEHAVAHSGLPDNVK
notes: also called first fluorescent protein of the present invention; not shown: N-terminal His-tag from the pRSETB vector
- binding result [1]: binds

B2: Kaede 2 (dimeric mutant of Kaede, T158R and A160E) (other)
chain: MSLIKPEMKIKLLMEGNVNGHQFVIEGDGKGHPFEGKQSMDLVVKEGAPLPFAYDILTTAFHYGNRVFAKYPDHIPDYFKQSFPKGFSWERSLMFEDGGVCIATNDITLKGDTFFNKVRFDGVNFPPNGPVMQKKTLKWEASTEKMYLRDGVLTGDIRMELLLKGDVHYRCDFRTTYKSRQEGVKLPGYHFVDHCISILRHDKDYNEVKLYEHAVAHSGLPDNVK
notes: No tag or expression construct is stated for the gel sample
- binding result [1]: binds

B3: Momiji (fluorescent protein derived from Scolymia vitiensis) (other)
chain: MVSVIKDEMKVNLRMEGSVNGHDFVIDGLGSGKPKEGTQTIELKVVKGGPLPFAYDILTTAFHYGNRVFAKYPKDIPNYFEQSFPEGYSWERSMIFEDGGICIARNDITMDGGTFYNKVRFYGVNFPPNGPVMQKKTQKWEQSTEKMYARDGVLTGDINMALLLKGGGHYRCDFRTTFKAKEKGVKLPGYHFIDHCIEILSHRNDYNNVTLFEHAVARSGLQDKEKQQQ
notes: Found to be a tetramer by pseudonative SDS/PAGE; also called WT (Momiji); wild type (Momiji); not shown: His-tag from the pET28 vector, said to be at the N-terminus
- binding result [2]: binds

B4: d16 (dimeric mutant of Momiji) (other)
chain: MVSVIKDEMKVRLRMEGSVNGHDFVIDGTGSGKPKEGTQTIELKVVKGGPLPFAYDILTTAFHYGNRVFAKYPKDIPNYFEQSFPEGYSWERSMIFEDGGICIARNDITMDGGTFYNKVRFEGVNFPPNGPVMQKNTLKWEPSTEKMYARDGVLTGDIDMSLLLKGGGHYRCDFRTTFKAKEKGVKLPGTHYIDHSIEILSHRNDYNNVTLFEHAVARSGLQD
notes: No tag is stated for the gel sample
- binding result [3]: binds

B5: m16 (monomeric mutant of Momiji) (other)
chain: MVSVIKDEMKVRLRMEGSVNGHDFVIDGTGSGKPKEGTQTIELKVVKGGPLPFAYDILTTAFHYGNRVFAKYPKDIPNYFEQSFPEGYSWERSMTFEDGGVCTARNDITMDGGTFYNKVRFEGTNFPPNGPVMQKKTLKWEPSTEKMYARDGVLTGDIDMSLLLKGGGHYRCDMRTTFKAKEKGVKLPGTHYIDHSIEILSHRNDYNNVTLYEHAVARSGLQD
notes: as for B4
- binding result [4]: no binding
